The sequences below were run on Escherichia coli TOP10 (assay: shrunken log2 fold change of peptide-encoding DNA abundance (4.5 h post-induction vs induction); higher = less antimicrobial activity (less host growth inhibition)). Conditions: time post-induction: 4.5 h; library: site-saturation at positions 5, 18, 19, 20.
RRIRVRPPRLPRPRPRPPAMPRP was tested, and the “shrunken log2 fold change” value was 0.246.
With RRIRHRPPRLPRPRPRPRPPPRP the “shrunken log2 fold change” value was 1.15.
In the case of RRIRVRPPRLPRPRPRPEVTPRP, the “shrunken log2 fold change” value is reported as -0.0717.
In the case of RRIRIRPPRLPRPRPRPWSNPRP, the “shrunken log2 fold change” value is reported as -0.0121.
In the case of RRIRQRPPRLPRPRPRPKPLPRP, the “shrunken log2 fold change” value is reported as 0.176.
With RRIRDRPPRLPRPRPRPDCSPRP the “shrunken log2 fold change” value was 0.573.
In the case of RRIRERPPRLPRPRPRPKMAPRP, the “shrunken log2 fold change” value is reported as 2.39.
With RRIRHRPPRLPRPRPRPPCEPRP the “shrunken log2 fold change” value was 0.00703.
For RRIRNRPPRLPRPRPRPKPDPRP, the “shrunken log2 fold change” value was 0.355.
RRIRVRPPRLPRPRPRPYYMPRP was tested, and the “shrunken log2 fold change” value was -0.997.
With RRIRRRPPRLPRPRPRPFLQPRP the “shrunken log2 fold change” value was 0.117.
In the case of RRIRRRPPRLPRPRPRPRATPRP, the “shrunken log2 fold change” value is reported as 0.162.
RRIRIRPPRLPRPRPRPTNFPRP was tested, and the “shrunken log2 fold change” value was -0.535.
RRIRHRPPRLPRPRPRPAKNPRP was tested, and the “shrunken log2 fold change” value was -0.207.
In the case of RRIRFRPPRLPRPRPRPDGPPRP, the “shrunken log2 fold change” value is reported as 0.0689.
With RRIRRRPPRLPRPRPRPKGTPRP the “shrunken log2 fold change” value was 0.25.
With RRIRDRPPRLPRPRPRPLWTPRP the “shrunken log2 fold change” value was 0.163.
With RRIRKRPPRLPRPRPRPPLQPRP the “shrunken log2 fold change” value was 0.558.
RRIRYRPPRLPRPRPRPTQFPRP was tested, and the “shrunken log2 fold change” value was -0.558.
In the case of RRIRMRPPRLPRPRPRPALEPRP, the “shrunken log2 fold change” value is reported as 0.347.
In the case of RRIRMRPPRLPRPRPRPCEEPRP, the “shrunken log2 fold change” value is reported as 0.0566.
In the case of RRIRGRPPRLPRPRPRPWLFPRP, the “shrunken log2 fold change” value is reported as 0.458.
For RRIRVRPPRLPRPRPRPNPGPRP, the “shrunken log2 fold change” value was -0.131.
For RRIRARPPRLPRPRPRPPMIPRP, the “shrunken log2 fold change” value was -0.172.
RRIRNRPPRLPRPRPRPVGHPRP was tested, and the “shrunken log2 fold change” value was -0.128.
For RRIRRRPPRLPRPRPRPPLYPRP, the “shrunken log2 fold change” value was 0.851.
RRIRSRPPRLPRPRPRPLRQPRP was tested, and the “shrunken log2 fold change” value was 0.364.
RRIRLRPPRLPRPRPRPWHYPRP was tested, and the “shrunken log2 fold change” value was -0.164.
With RRIRCRPPRLPRPRPRPFELPRP the “shrunken log2 fold change” value was -0.0697.
For RRIRWRPPRLPRPRPRPENNPRP, the “shrunken log2 fold change” value was -0.0683.
For RRIRGRPPRLPRPRPRPLDFPRP, the “shrunken log2 fold change” value was 0.78.
With RRIRPRPPRLPRPRPRPNTKPRP the “shrunken log2 fold change” value was 0.0992.
For RRIRNRPPRLPRPRPRPYSWPRP, the “shrunken log2 fold change” value was -0.814.
For RRIRGRPPRLPRPRPRPQCCPRP, the “shrunken log2 fold change” value was 0.168.
In the case of RRIRQRPPRLPRPRPRPCQTPRP, the “shrunken log2 fold change” value is reported as 0.00707.
For RRIRDRPPRLPRPRPRPNCQPRP, the “shrunken log2 fold change” value was 0.156.
RRIRLRPPRLPRPRPRPWFDPRP was tested, and the “shrunken log2 fold change” value was -0.365.
With RRIRWRPPRLPRPRPRPWARPRP the “shrunken log2 fold change” value was 0.135.
RRIRQRPPRLPRPRPRPFNHPRP was tested, and the “shrunken log2 fold change” value was 0.0419.
In the case of RRIRWRPPRLPRPRPRPSMPPRP, the “shrunken log2 fold change” value is reported as -0.423.
RRIRSRPPRLPRPRPRPRYQPRP was tested, and the “shrunken log2 fold change” value was -0.145.
RRIRHRPPRLPRPRPRPGMMPRP was tested, and the “shrunken log2 fold change” value was 0.00873.
In the case of RRIRQRPPRLPRPRPRPHSGPRP, the “shrunken log2 fold change” value is reported as -0.01.
In the case of RRIRIRPPRLPRPRPRPLPFPRP, the “shrunken log2 fold change” value is reported as -1.01.
With RRIRTRPPRLPRPRPRPWWGPRP the “shrunken log2 fold change” value was 0.221.
RRIRKRPPRLPRPRPRPTYTPRP was tested, and the “shrunken log2 fold change” value was 0.475.
For RRIRCRPPRLPRPRPRPRMGPRP, the “shrunken log2 fold change” value was 0.0392.
For RRIRMRPPRLPRPRPRPLHHPRP, the “shrunken log2 fold change” value was -0.0632.
With RRIRQRPPRLPRPRPRPLYYPRP the “shrunken log2 fold change” value was 0.614.
RRIRQRPPRLPRPRPRPKPQPRP was tested, and the “shrunken log2 fold change” value was -0.0342.
With RRIRIRPPRLPRPRPRPAFAPRP the “shrunken log2 fold change” value was 0.207.
With RRIRGRPPRLPRPRPRPIIHPRP the “shrunken log2 fold change” value was -0.261.
RRIRPRPPRLPRPRPRPQCMPRP was tested, and the “shrunken log2 fold change” value was -0.312.
RRIRKRPPRLPRPRPRPPYSPRP was tested, and the “shrunken log2 fold change” value was -0.433.
In the case of RRIRVRPPRLPRPRPRPYYIPRP, the “shrunken log2 fold change” value is reported as -0.284.
For RRIRKRPPRLPRPRPRPVMSPRP, the “shrunken log2 fold change” value was -0.123.
RRIRGRPPRLPRPRPRPKREPRP was tested, and the “shrunken log2 fold change” value was -0.00218.
In the case of RRIRDRPPRLPRPRPRPFGEPRP, the “shrunken log2 fold change” value is reported as -0.0214.
In the case of RRIRGRPPRLPRPRPRPPYTPRP, the “shrunken log2 fold change” value is reported as 0.145.
With RRIRDRPPRLPRPRPRPLSRPRP the “shrunken log2 fold change” value was -0.113.

— the supplement of paper PMC9112550, “Optimization of the antimicrobial peptide Bac7 by deep mutational scanning” (BMC Biology, 2022)
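Also: peptides expressed intracellularly from a pBAD plasmid library in pooled LB shake-flask culture, induced with 0.3% L-arabinose, DNA abundance read by NGS, three biological replicates, DESeq2 with apeglm shrinkage.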
